Reference: PMC3855486, “New Insights into the Phylogeny and Molecular Classification of Nicotinamide Mononucleotide Deamidases” (PLoS ONE, 2013)

Substrate: NC(=O)c1ccc[n+]([C@@H]2O[C@H](COP(=O)(O)O)[C@@H](O)[C@H]2O)c1
Test: HPLC, decrease of NMN peak area
Format: biochemical, Oceanobacillus iheyensis
Conditions: 50 mM phosphate buffer pH 7.5, 37 °C, Michaelian, NMN 0.01-1 mM

B1: OiPncC (Oceanobacillus iheyensis HTE831) (protein)
chain: MKNYQAEIVAVGTELLLGQIANTNAQWLSEKLATYGINMYNHTVVGDNLERVEQAFQLAQSRSNIIIVTGGLGPTADDLTREGFQQMTGLPLVEDKESMEKIEGFFQNRGRTMTPNNRKQARVFEGSTVLNNKAGMAPGMYVHYQSCHWFFLPGVPREMKHISQEELFPFLEKVTGKQRIIQSVVLKFIGIGESTLEHTLSDLIEKQTNPTIAPLAQDQAVVIRLTARGETKQEAEAMLEQTKKLILARVGEHYFGENEESIEDIVVQQLQDLGYSISAAESITGGMFSQRLVSVTGASNVFAGSFITYQSRIKEEVLEVPSEIIHSQGVVSRACSDAMASNVTRKIQTNLGISFTGIAGPDEQEGKPVGTVYISIADGDEVVVSKQFNFTGNRNHIRDRACLKGFELIYQYLKSKS
notes: full length, 417 residues (gene misprinted as 417 bp), MocF-CinA two-domain; C-terminal His6 (pET24b), E. coli Rosetta2(DE3)
  Km: 180 ± 20 µM
  kcat: 0.38 ± 0.01 s⁻¹
